Our source for the Remaining activity [%] values is patent publication EP4717706A1.

The target of experiment [1] is VLP2 (virus-like particles, capsid protein particles of AAV serotype 2) (AAV serotype 2 (AAV2)) (UniProt P03135). Description: ELISA on immobilised VLP2 (culture supernatant); A450 after 1:1 0.1 M glycine-NaOH pH 10.0, 15 min, 51.3°C divided by A450 untreated. On the technique in general: An ELISA detects its analyte on a solid surface through an enzyme-linked reagent.

For experiment [2] the target is unchanged. Description: ELISA on immobilised VLP2 (purified protein); A450 after 1:1 0.1 M glycine-NaOH pH 10.0, 15 min, 70°C divided by A450 untreated.
The target is the same in experiment [3]. Description: ELISA on immobilised VLP2 (purified protein); A450 after 1:1 0.1 M glycine-NaOH pH 10.0, 15 min, 60.1°C divided by A450 untreated.
Experiment [4] shares this target. Description: ELISA on immobilised VLP2 (purified protein); A450 after 1:1 0.1 M glycine-NaOH pH 10.0, 15 min, 55.7°C divided by A450 untreated.
Experiment [5] has the same target. Description: ELISA on immobilised VLP2 (purified protein); A450 after 1:1 0.1 M glycine-NaOH pH 10.0, 15 min, 66.1°C divided by A450 untreated.
Experiment [6] shares this target. Description: ELISA on immobilised VLP2 (purified protein, 5 µg/mL); A450 after 1:1 1 M NaOH with 1 mM CaCl2, 30°C, 30 min divided by A450 at 0 time.
The target is the same in experiment [7]. Description: ELISA on immobilised VLP2 (purified protein, 5 µg/mL); A450 after 1:1 1 M NaOH with 1 mM CaCl2, 30°C, 60 min divided by A450 at 0 time.
For experiment [8] the target is unchanged. Description: ELISA on immobilised VLP2 (culture supernatant); A450 after 1:1 1 M NaOH, 15 min, 30°C divided by A450 untreated.
Experiment [9] shares this target. Description: ELISA on immobilised VLP2 (purified protein, 5 µg/mL); A450 after 1:1 1 M NaOH with 1 mM CaCl2, 30°C, 20 min divided by A450 at 0 time.
Experiment [10] has the same target. Description: ELISA on immobilised VLP2 (purified protein, 5 µg/mL); A450 after 1:1 1 M NaOH with 1 mM CaCl2, 30°C, 60 min divided by A450 at 0 time. This is another data set of the same source.
For experiment [11] the target is unchanged. Description: ELISA on immobilised VLP2 (purified protein, 5 µg/mL); A450 after 1:1 1 M NaOH with 1 mM CaCl2, 30°C, 30 min divided by A450 at 0 time. The source holds these as a separate data set.
For experiment [12] the target is unchanged. Description: ELISA on immobilised VLP2 (purified protein, 5 µg/mL); start of alkali treatment, the reference of the ratio.
For experiment [13] the target is unchanged. Description: ELISA on immobilised VLP2 (purified protein, 5 µg/mL); A450 after 1:1 1 M NaOH with 1 mM CaCl2, 30°C, 60 min divided by A450 at 0 time. The source holds these as a separate data set.
For experiment [14] the target is unchanged. The description is as above. This is another data set of the same source.
For experiment [15] the target is unchanged. Description: ELISA on immobilised VLP2 (purified protein, 5 µg/mL); A450 after 1:1 1 M NaOH with 1 mM CaCl2, 30°C, 30 min divided by A450 at 0 time. The source holds these as a separate data set.
Experiment [16] shares this target. Description: ELISA on immobilised VLP2 (purified protein); start of alkali treatment, the reference of the ratio.
Experiment [17] shares this target. Description: ELISA on immobilised VLP2 (purified protein); A450 after 1:1 0.5 M NaOH, 30°C, 90 min divided by A450 at 0 time.
Experiment [18] has the same target. Description: ELISA on immobilised VLP2 (purified protein, 5 µg/mL); A450 after 1:1 1 M NaOH with 1 mM CaCl2, 30°C, 45 min divided by A450 at 0 time.
Experiment [19] shares this target. Description: ELISA on immobilised VLP2 (purified protein); A450 after 1:1 0.5 M NaOH, 30°C, 30 min divided by A450 at 0 time.
Experiment [20] has the same target. Description: ELISA on immobilised VLP2 (purified protein, 5 µg/mL); A450 after 1:1 1 M NaOH with 1 mM CaCl2, 30°C, 20 min divided by A450 at 0 time. This is another data set of the same source.
The target is the same in experiment [21]. Description: ELISA on immobilised VLP2 (purified protein, 5 µg/mL); A450 after 1:1 1 M NaOH with 1 mM CaCl2, 30°C, 30 min divided by A450 at 0 time. This is another data set of the same source.
For experiment [22] the target is unchanged. Description: ELISA on immobilised VLP2 (culture supernatant, anti-His detection); A450 after 1:1 0.5 M NaOH, 30 min, 30°C divided by A450 untreated.
For experiment [23] the target is unchanged. Description: ELISA on immobilised VLP2 (purified protein); A450 after 1:1 0.5 M NaOH, 30°C, 30 min divided by A450 at 0 time. This is another data set of the same source.
Experiment [24] has the same target. Description: ELISA on immobilised VLP2 (purified protein); A450 after 1:1 0.5 M NaOH, 30°C, 60 min divided by A450 at 0 time.

UniProt P03135, sequence (P03135 whole entry): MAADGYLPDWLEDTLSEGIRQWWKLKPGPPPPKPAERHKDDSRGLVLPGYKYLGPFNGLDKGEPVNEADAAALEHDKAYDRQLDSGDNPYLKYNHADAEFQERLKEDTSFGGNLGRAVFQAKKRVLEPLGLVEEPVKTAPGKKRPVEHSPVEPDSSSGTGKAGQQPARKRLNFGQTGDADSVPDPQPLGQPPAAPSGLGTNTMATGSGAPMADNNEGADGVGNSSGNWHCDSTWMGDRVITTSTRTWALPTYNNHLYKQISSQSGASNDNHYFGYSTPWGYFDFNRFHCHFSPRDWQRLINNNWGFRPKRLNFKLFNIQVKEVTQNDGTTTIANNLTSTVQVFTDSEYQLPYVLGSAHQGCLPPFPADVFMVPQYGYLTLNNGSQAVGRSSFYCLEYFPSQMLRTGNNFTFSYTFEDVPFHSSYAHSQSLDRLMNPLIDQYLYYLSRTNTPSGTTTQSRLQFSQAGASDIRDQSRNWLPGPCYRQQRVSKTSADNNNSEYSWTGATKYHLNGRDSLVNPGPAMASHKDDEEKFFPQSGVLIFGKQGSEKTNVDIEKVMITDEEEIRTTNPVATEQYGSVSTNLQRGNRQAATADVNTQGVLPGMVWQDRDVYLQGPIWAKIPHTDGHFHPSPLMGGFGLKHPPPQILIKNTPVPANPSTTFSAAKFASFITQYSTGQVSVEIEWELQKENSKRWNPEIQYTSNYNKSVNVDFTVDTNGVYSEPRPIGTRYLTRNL

B1: AVR8g with Y331H, F379S, K467N, A491T (receptor)
chain: MGSAGESDQITLPKNEVQLNAHVLQEPPKGETCTYDWQLITHPRDYSGEMEGEHSQILKLSNLTPGLYESKVIVEGQNAHSEGYVNVTVEPEPRKNRPPIAIVSPQFQEISLPTTSTVIDGSQSTDDDKIVQYHWEELKGPLREEKISEDTAILKLSNLVPGNYTFRLTVVDSDGATDSTTTNLTVNKAVDHHHHHH
As to B1, the Remaining activity [%] in experiment [1] was found to be 28.1%.

B2: AAV-binding protein AVR8g (receptor)
chain: MGSAGESDQITLPKNEVQLNAYVLQEPPKGETCTYDWQLITHPRDYSGEMEGEHSQILKLSNLTPGLYEFKVIVEGQNAHSEGYVNVTVEPEPRKNRPPIAIVSPQFQEISLPTTSTVIDGSQSTDDDKIVQYHWEELKGPLREEKISEDTAILKLSKLVPGNYTFRLTVVDSDGATDSTTANLTVNKAVDHHHHHH
Regarding B2, the Remaining activity [%] in [2] turned out to be 3.77%; in experiment [3], 4.18%; in experiment [1], 8.8%; in [4] it was 0.837%; in experiment [5], 0%.

B3: AVR28 (AVR25c with I366F, V394A, K455R) (receptor)
chain: MGSAGESDQITLPKHEAQLKVYVLLVPPKGEASTYDWQLITHPRDYSGEMEGEHSQFLKLSNLTPGLYEYRAVVEGQNAHSEGYANVTVEPGPRKNRPPIAIVSPQFQEISLPTTSAVIDGSQSTDDDKIVQYHWEELKGPLREERISEDTPILKLSNLVPGNYTFRLTVVDTDGATDSTTADLTVNKAVDHHHHHH
Regarding B3, the Remaining activity [%] in experiment [6] was determined as 42%; in experiment [7], 6.29%; in [8], 71.9%; in experiment [9], 42.5%; in experiment [10] it was 3%; in experiment [11], 22.5%. Besides, the Remaining activity [%] worked out at 100% in experiment [12] and 1.22% in experiment [13].

B4: AVR31 (AVR25c with G314D, I366F, V394A, K455R, K497E, V499I) (receptor)
chain: MGSADESDQITLPKHEAQLKVYVLLVPPKGEASTYDWQLITHPRDYSGEMEGEHSQFLKLSNLTPGLYEYRAVVEGQNAHSEGYANVTVEPGPRKNRPPIAIVSPQFQEISLPTTSAVIDGSQSTDDDKIVQYHWEELKGPLREERISEDTPILKLSNLVPGNYTFRLTVVDTDGATDSTTADLTVNEAIDHHHHHH
As for B4, the Remaining activity [%] in experiment [6] turned out to be 48.3%; in [7], 10.6%; in [14] it was 13.3%; in experiment [15] it was 53.8%; in experiment [12] it was 100%.

B5: AVR25c (AVR25a with K467N) (receptor)
chain: MGSAGESDQITLPKHEAQLKVYVLLVPPKGEASTYDWQLITHPRDYSGEMEGEHSQILKLSNLTPGLYEYRAVVEGQNAHSEGYVNVTVEPGPRKNRPPIAIVSPQFQEISLPTTSAVIDGSQSTDDDKIVQYHWEELKGPLREEKISEDTPILKLSNLVPGNYTFRLTVVDTDGATDSTTADLTVNKAVDHHHHHH
For B5, the Remaining activity [%] is 100% in [16]; 22% in experiment [6]; 2.19% in experiment [7]; 66.9% in experiment [17]; 1.96% in experiment [14]; 33.5% in experiment [8]. In addition, the Remaining activity [%] in [10] was determined as 0.197%; in experiment [18] it was 0%; in experiment [15], 16.3%; in experiment [19], 91.2%; in [20] it was 12.1%; in experiment [11], 2.87%. Further, the Remaining activity [%] is 5.28% in experiment [21] and 100% in experiment [12].

B6: AAV-binding protein AVR21 (receptor)
chain: MGSAGESDQITLPKHEAQLNVYVLLVPPKGEASTYDWQLITHPRDYSGEMEGEHSQILKLSNLTPGLYEYRAVVEGQNAHSEGYVNVTVEPEPRKNRPPIAIVSPQFQEISLPTTSTVIDGSQSTDDDKIVQYHWEELKGPLREEKISEDTAILKLSQLVPGNYTFRLTVVDTDGATDSTTADLTVNKAVDHHHHHH
As for B6, the Remaining activity [%] in experiment [16] is 100%; in [22], 26.2%; in experiment [23], 16.9%; in [24], 0%; in [14], 0.694%; in [15], 1.53%. Also, the Remaining activity [%] in [12] was 100%.

B7: AVR25a (AVR21 with N329K, E401G, T426A, A461P) (receptor)
chain: MGSAGESDQITLPKHEAQLKVYVLLVPPKGEASTYDWQLITHPRDYSGEMEGEHSQILKLSNLTPGLYEYRAVVEGQNAHSEGYVNVTVEPGPRKNRPPIAIVSPQFQEISLPTTSAVIDGSQSTDDDKIVQYHWEELKGPLREEKISEDTPILKLSQLVPGNYTFRLTVVDTDGATDSTTADLTVNKAVDHHHHHH
With B7, the Remaining activity [%] in experiment [16] came to 100%; in experiment [23], 100%; in [17], 0%; in experiment [24], 47.9%; in experiment [19], 62.3%.
